13 sequences from the DeepSol protein solubility set can be followed below.

The nature of the data set: soluble on expression in E. coli; label from the status in PepcDB or PDB records.
For “MGHHHHHHSHMLFIDNQNINDPRINLAIEEYCVKHLDPEQQYLLFYVNQPSIIIGKNQNTIEEINTKYVEENGIIVVRRLSGGGAVYHDLGNLNFSFITKDDGDSFHNFKKFTEPVIQALHQLGVEAELSGRNDIVVDGRKISGNAQFATKGRIFSHGTLMFDSAIDHVVSALKVKKDKIESKGIKSIRSRVANISEFLDDKMTTEEFRSHLLRHIFNTNDVGNVPEYKLTEKDWETIHQISKERYQNWDWNYGRSPKFNLNHSKRYPVGSIDLHLEVKKGKIEDCKIFGDFFGVGDVSEIENLLVGKQYERSVIADVLEGVNLKHYFGNITKEDFLDLIY”, the “soluble on expression in E. coli” value is “not soluble”. The value for “MQGVPSNEPMLGQLTDNGRAAEAGLKEGDYIQSINGEKMRSWTDIVSAVKENPEKEMDVAVKRDNKTLHISVTPEAVKDENKKTIGRFGSYAPTEKGVLSAVAYGATSTVDVTKAILTNLSKLVTGQFKLDMLSGPVGIYDMTDQVAKTGI” was “not soluble”; that for “MDSVELCLPESFSLHYEEELLCRMSNKDRHIDSSCSSFIKTEPSSPASLTDSVNHHSPGGSSDASGSYSSTMNGHQNGLDSPPLYPSAPILGGSGPVRKLYDDCSSTIVEDPQTKCEYMLNSMPKRLCLVCGDIASGYHYGVASCEACKAFFKRTIQGNIEYSCPATNECEITKRRRKSCQACRFMKCLKVGMLKEGVRLDRVRGGRQKYKRRIDAENSPYLNPQLVQPAKKPYNKIVSHLLVAEPEKIYAMPDPTVPDSDIKALTTLCDLADRELVVIIGWAKHIPGFSTLSLADQMSLLQSAWMEILILGVVYRSLSFEDELVYADDYIMDEDQSKLAGLLDLNNAILQLVKKYKSMKLEKEEFVTLKAIALANSDSMHIEDVEAVQKLQDVLHEALQDYEAGQHMEDPRRAGKMLMTLPLLRQTSTKAVQHFYNIKLEGKVPMHKLFLEMLEAKV” was “soluble”; that for “MEDLLPTLPSLDHRDALPNALASPVLPAGQSDAQLVRTWLDTKYAAGLGIRASTRAQYALEAHRLLWYAHALGRPLASWQVADANGYLAFLADPPAHAVGDGRVRQDSPAWRPLRGPLSEASRRQTATIVGGLFEWLVGVEALRVNPFQAVPRARSARGPGSQRRFLEAEQLAAVFDAVEARPAPTLWAQLHKARDRLLLALLFHTGLRASEVTALTWPDFERQRGRHGDFWTVRIREAKGGSDQLVPCDNVMAELARFRQLVGLSPEPRATDTMAVVPAMAGGRQRLAPLTDTLALQRRLSRPVRTRQGLYTIVRQVFEAAAVRLEASGYAEGAANLRAASTHWLRHSHATHLLRAGVPVTDVQRTLRHRDINTTRRYTHEALEDVARSIGGKLPAVLEHHHHHH” was “not soluble”. The result for “MLWHAMPPELNTARLMAGAGPAPMLAAAAGWQTLSAALDAQAVELTARLNSLGEAWTGGGSDKALAAATPMVVWLQTASTQAKTRAMQATAQAAAYTQAMATTPSLPEIAANHITQAVLTATNFFGINTIPIALTEMDYFIRMWNQAALAMEVYQAETAVNTLFEKLEPMASILDPGASQSTTNPIFGMPSPGSSTPVGQLPPAATQTLGQLGEMSGPMQQLTQPLQQVTSLFSQVGGTGGGNPADEEAAQMGLLGTSPLSNHPLAGGSGPSAGAGLLRAESLPGAGGSLTRTPLMSQLIEKPVAPSVMPAAAAGSSATGGAAPVGAGAMGQGAQSGGSTRPGLVAPAPLAQEREEDDEDDWDEEDDW” reads “soluble”. The value for “MSLPQFSVDLCLFDLDGTIVSTTTAAESAWKKLCRQHGVDPVELFKHSHGARSQEMMKKFFPKLDNTDNKGVLALEKDMADNYLDTVSLIPGAENLLLSLDVDTETQKKLPERKWAIVTSGSPYLAFSWFETILKNVGKPKVFITGFDVKNGKPDPEGYSRARDLLRQDLQLTGKQDLKYVVFEDAPVGIKAGKAMGAITVGITSSYDKSVLFDAGADYVVCDLTQVSVVKNNENGIVIQVNNPLTRDEGHHHHHH” was “soluble”; that for “MGSDKIHHHHHHMDIPWLVERDDRNERIVLSIKTNAKEALENAYRKKSRVTGKMIAYVHDSCANFFCEEGWLQEGAVSTYFHNGQANVFSFFLKEDRQNSDHERLHREVLSYVQKIERTLELSSHAVQRLNEADTDSLAQLYRHVFERYPTDVFSAQYLQQTMKEGAKFVGVKEGTDIICAASAVPNGFGGWEITDCATKKEARGNGYLSSVLCELEQWLWEEGEENVYSITRSHSFGMNVTIKKRGFSYEGTMVNNCIIGTGFEDMNIWTKRLTATNIC” was “not soluble”; that for “MKESLIEAKVMDYGKLKDIQKEILYYKLYVDALKKKGIKEKVDPPPTLPKSIVSSVLTGGIPRDGPLQIELVSNDVVKIKEYNTLVKIQSDSRLPLYAIVEYRDTDIRVYLAYRENPSIVGLDLGLRHLITIVAIKDTKPWKVRFFDEPKLMEKFANFLSENQGIIKLEEMKSNAKRIIYEAVSFIEDLEPKVVAMENLEYFETKTGKGLRALQNMLENEIRRRGIRYRKIDPYNTSRVCAKCGYKKGEILGSLFVCPACGYKADRDYNAAYNIALKCYYTCLEHHHHHH” was “not soluble”.

As for “MYNDPRSHGLWEKTAPQPPVTPALQGDAVADVVVVGGGFTGQSAALHLAEGGLDVILLEAKEIGFGGAGRNVGLINGGMWVMPKELPDVLGETYGERLLDLLGDAPVLVRELVEKHGIPCEIEKNGTLHCAVGEKGLAEIRERCEQWSARGAPVRVLDADETASYIGSTAYSGALLDSRAGTIQPLAYVRGLAGAALKAGVRLHTASPVNETGRNGAKWVVKTPEGSVTAKWIVVATEAYSTGPWQIIREEQVYLPYFNFATRPLSDNLQKSILPGRQGCWDTKEILSSFRMDKAGRLVFGSVGALRGTGTAIHRAWAKRSLKRLFPQLGDTEFECEWYGQIGMTDNAVPRFHKFAENVIGFSGYNGRGIAPGTAFGKVIAQHILGEIAEADLPLPVTEPKAQAFRAVKEAYYEAGAQIAHFAGERFLEHHHHHH”, the “soluble on expression in E. coli” value is given as “not soluble”.

With “MTDFLEIRPLTKEAFTPFGDVIETTPSSMRHINGGQTERHHALSAPEAAGEGARIILNIFRGQPRVFPHKIDMMERHPLGSQSFSPLSGRPFLVVVAQDDGGRPARPQVFLARGDQGVNYRRNVWHYPLMPLQAVSDFLVADREGPGNNLEEYFFDEPFMIAEPSL”, the “soluble on expression in E. coli” value is reported as “not soluble”. Regarding “GPGSMDDLVAVRIKDGIFAGNAGAAADKTLLIMNKITHIINCAGAEVADFFLGEPGFSYLSFPWKDAAGSVCTTILFDAGDDNIHRVVQFIDEALAAGECVLVHSVYGNSRSPALIAAYMIMKYGWKLESALLYLKMAHPDSDIKPHFQRQLRQFAKRHEVDHDIFAQDVDDSQFGLDNDQWMLRNTLLNGLLYKDQMANDLYRQCAEKVDVGNPVNGKAKKAHITFVDTKKGTDA”, the “soluble on expression in E. coli” value was “not soluble”. The value for “MGHHHHHHENLYFQGMKKEKVEQILAEFQLQEEDLKKVMRRMQKEMDRGLRLETHEEASVKMLPTYVRSTPEGSEVGDFLSLDLGGTNFRVMLVKVGEGEEGQWSVKTKHQMYSIPEDAMTGTAEMLFDYISECISDFLDKHQMKHKKLPLGFTFSFPVRHEDIDKGILLNWTKGFKASGAEGNNVVGLLRDAIKRRGDFEMDVVAMVNDTVATMISCYYEDHQCEVGMIVGTGCNACYMEEMQNVELVEGDEGRMCVNTEWGAFGDSGELDEFLLEYDRLVDESSANPGQQLYEKLIGGKYMGELVRLVLLRLVDENLLFHGEASEQLRTRGAFETRFVSQVESDTGDRKQIYNILSTLGLRPSTTDCDIVRRACESVSTRAAHMCSAGLAGVINRMRESRSEDVMRITVGVDGSVYKLHPSFKERFHASVRRLTPSCEITFIESEEGSGRGAALVSAVACKKACMLGQ” was “soluble”. With “MAHHHHHHMTVVQEAIRVTSATPQPCGAADDVLAMKTLSPHDKVRRYMEEQECRHVPPTDATPEVASSEGGHDDALPGQHEDGDGEINHKIVPFTGEPGPDARERVPDRQKEKKKQKKQQAPRKRKHRSECAGREADDPLLLFRRSQKALRTEARHVNMKEVLSRSLSGVFDGLGEASNPFSPAAGSQSSSAWSPLVANSITSQFLSNVQQRKKQTFERLLQKEIANSQLSTSRLTPDDGEPDDRIPELVIGDETAVMEPPSMGHDALLMDAGTTSSQADTLLMGNTTSRGFVELDEEAEQAQSEALMRKHELWRLRQKHLRERLRAEESIPQLKRGDHQASLRGQPQTTVPMNFVTQSTSSLSTARGTTADVDGPTETLVLAHCSIIQQSQSLALGLSADHIEMIRRANNFDNTSSQRLVVFETKSRMKREGLAHLQQ”, the “soluble on expression in E. coli” value is reported as “not soluble”.
